Test results published in publication PMC6077130 (Heliyon, 2018).

Biological target: T1, N-terminus of Glis3 (aa 1-653) fused to the Gal4 DBD (mouse, UniProt F6SGN4 1-653)
T1 sequence (looked up): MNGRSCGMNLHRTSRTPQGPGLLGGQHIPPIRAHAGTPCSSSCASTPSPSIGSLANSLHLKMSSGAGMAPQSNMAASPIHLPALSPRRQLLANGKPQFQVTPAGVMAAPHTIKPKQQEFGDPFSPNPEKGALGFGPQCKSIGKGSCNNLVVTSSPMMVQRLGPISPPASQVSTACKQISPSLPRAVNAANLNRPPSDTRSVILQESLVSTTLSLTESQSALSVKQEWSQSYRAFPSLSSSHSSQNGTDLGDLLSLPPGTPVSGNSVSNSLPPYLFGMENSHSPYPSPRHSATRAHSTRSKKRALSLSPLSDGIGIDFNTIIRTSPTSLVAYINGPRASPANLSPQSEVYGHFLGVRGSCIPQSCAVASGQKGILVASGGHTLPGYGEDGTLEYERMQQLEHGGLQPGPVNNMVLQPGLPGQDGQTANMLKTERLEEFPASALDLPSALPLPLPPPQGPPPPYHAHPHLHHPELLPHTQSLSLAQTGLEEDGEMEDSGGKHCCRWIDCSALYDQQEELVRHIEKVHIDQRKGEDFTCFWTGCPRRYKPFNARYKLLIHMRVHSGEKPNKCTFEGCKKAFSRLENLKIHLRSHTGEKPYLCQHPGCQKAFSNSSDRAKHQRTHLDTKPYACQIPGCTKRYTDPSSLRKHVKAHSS
Experiment: two-hybrid

B1: full length PIASy fused to the Gal4 AD (VP16-PIASy) (natural protein, UniProt Q9JM05 1-507, looked up)
chain: MAAELVEAKNMVMSFRVSDLQMLLGFVGRSKSGLKHELVTRALQLVQFDCSPELFKKIKELYETRYAKKSAEPGPQAPRPLDPLALHSMPRTPLSGPTVDYPVLYGKYLNGLGRLPTKTLKPEVRLVKLPFFNMLDELLKPTELVPQSAEKLQESPCIFALTPRQVEMIRNSRELQPGVKAVQVVLRICYSDTSCPQEDQYPPNIAVKVNHSYCSVPGYYPSNKPGVEPKRPCRPINLTHLMYLSSATNRITVTWGNYGKSYSVALYLVRQLTSSDLLQRLKTIGVKHPELCKALVKEKLRLDPDSEIATTGVRVSLICPLVKMRLSVPCRAETCAHLQCFDAVFYLQMNEKKPTWMCPVCDKPAAYDQLIIDGLLSKILSECEGADEIEFLAEGSWRPIRAEKEPSCSPQGPILVLGTSDANGLAPASSTPGIGSGLSGPGSAGSGAGAAGSLENGKTGADVVDLTLDSSSSSEDEDEDEDDDEDEDEGPRPKRRCPFQKGLVPAC
For B1, the “fold increase in luciferase expression (two-hybrid, chimeras co-expressed)” value was 1.5 fold.
